Source: paper doi:10.1101/2020.05.06.080432

B1: His6-GlnA1 (enzyme)
chain: MVQMKKCTTKEDVLEAVKERDVKFIRTQFTDTLGIIKSWAIPAEQLEEAFENGVMFDGSSIQGFTRIEESDMKLALDPSTFRILPWRPATGAVARILGDVYLPDGNPFKGDPRYVLKTAIKEAEKMGFSMNVGPELEFFLFKLDANGNPTTELTDQGGYFDFAPLDRAQDVRRDIDYALEHMGFQIEASHHEVAPSQHEIDFRFGDVLCTADNVVTFKYVVKSIAYHKGYYASFMPKPLFGVNGSGMHSNQSLFKDGKNVFYDPDTPTKLSQDAMYYIGGLLKHIREFTAVTNPVVNSYKRLVPGYEAPVYISWSAQNRSSLIRIPATRGNGTRIELRCPDPACNPYLAFALMLRAGLEGIKNKIDPGEPTNVNIFHLSDKEREERGIRSLPADLKEAIDEMKGSKFVKEALGEHVFSHYLCAKEMEWDEYKAVVHPWELSRYLSML
B2: His6-GlnK1 (natural protein)
chain: MVAMKYVIAMIRPERLDAVKRELQKIEVSRLTVSSVSGYGAQKGYMEIYRAMEYDANLLEKIKIEIAVNDEFLEPTIEAIKTGAKGSDGYVGSGKIFVLPLENVIRIRTNETGPEAI

Experiments:
Assay in all cases: MST
[1] = biological target: His6-GlnA1 (Methanosarcina mazei) (UniProt Q8PY99)
[2] = biological target: His6-GlnK1 (Methanosarcina mazei) (UniProt Q8PYW7)
[3] = biological target: synthesized sP26 (Davids Biotechnologie), nt-647-NHS-labeled (Methanosarcina mazei)

Molecule	Kd [1] [nM]	Kd [2] [nM]	Kd [3] [nM]
His6-sP26 (natural protein)	45000	1400	–
B1	–	–	76
B2	–	–	47
